B1: GABARAP (1-117), His8-TEV-GABARAP (natural protein)
chain: MKFVYKEEHPFEKRRSEGEKIRKKYPDRVPVIVEKAPKARIGDLDKKKYLVPSDLTVGQFYFLIRKRIHLRAEDALFFFVNNVIPPTSATMGQLYQEHHEEDFFLYIAYSDESVYGL

Where two headings read alike, the source gives them in different places.

Holding throughout (test): SPR
A general note: In SPR one partner is held on a chip, and binding of the other changes the refractive index at the surface.

For experiment [1], the target named is T1, Biotinylated FLCN-8xGlycine-AviTag/FNIP2 (human, UniProt Q8NFG4;Q9P278, biotin on the AviTag).
Experiment [2] addresses T1, Biotinylated FLCN-8xGlycine-AviTag/FNIP2. This is another data set of the same source.
The target of experiment [3] is B1.
The target in experiment [4] is LC3B (1-125), His8-TEV-LC3B (human, UniProt Q9GZQ8 1-120).
For experiment [5], the target named is B1. This is another data set of the same source.

A word on the Kd: it is the equilibrium constant for the complex coming apart. Higher therefore signals a looser complex. Regarding B1, the Kd came out at 0.071 ± 0.01 nM in experiment [1] and 0.3 ± 0.018 nM in experiment [2].

B2: GST-PreScission-p62 FIR 4P (domain or fragment)
chain: MESDNCSGGDDDWTHLSSKEVDPETGELQSLQMPESEGPEELDPEQEGPTGLKEA
With B2, the Kd was 670 ± 80 nM in experiment [3] and 820 ± 40 nM in experiment [4]. Take EKGEVEESEYVVITVRNEP [FNIP2 peptide 558-576, wild type (Short)]: in experiment [5], the equilibrium dissociation constant (Kd) worked out at 6200 ± 3000 nM. On the same count and under the same terms, next, GSKIITALEKGEVEESEYVVITVRNEP [FNIP2 peptide 550-576, wild type (Long)]: 29 ± 2 nM.

The record behind these values is doi:10.1101/2021.02.22.432209 (bioRxiv, 2021).
